Assay results from article PMC5299547 (Analytical Chemistry, 2017).

Target: T1, tryptophan synthase, beta subunit (Salmonella typhimurium, UniProt P0A2K1 2-397)
T1 sequence: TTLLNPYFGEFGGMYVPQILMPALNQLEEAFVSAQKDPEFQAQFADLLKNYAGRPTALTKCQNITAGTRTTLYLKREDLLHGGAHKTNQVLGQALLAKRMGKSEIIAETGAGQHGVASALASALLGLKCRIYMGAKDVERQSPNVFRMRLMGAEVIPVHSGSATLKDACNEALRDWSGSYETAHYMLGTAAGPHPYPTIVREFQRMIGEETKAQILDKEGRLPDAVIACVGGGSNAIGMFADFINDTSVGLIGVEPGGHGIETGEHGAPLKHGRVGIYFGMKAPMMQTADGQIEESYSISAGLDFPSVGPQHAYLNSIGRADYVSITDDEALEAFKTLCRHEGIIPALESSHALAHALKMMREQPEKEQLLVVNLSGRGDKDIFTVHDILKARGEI
Experiment: native MS; 10 μM purified complex buffer-exchanged in 200 mM ammonium acetate, electrosprayed (Synapt G2Si); subcomplexes generated in solution with 10–40% methanol, DMSO or acetonitrile
Settings: both partners purified

B1: tryptophan synthase, alpha subunit (natural protein, Salmonella typhimurium)
chain: MERYENLFAQLNDRREGAFVPFVTLGDPGIEQSLKIIDTLIDAGADALELGVPFSDPLADGPTIQNANLRAFAAGVTPAQCFEMLALIREKHPTIPIGLLMYANLVFNNGIDAFYARCEQVGVDSVLVADVPVEESAPFRQAALRHNIAPIFICPPNADDDLLRQVASYGRGYTYLLSRSGVTGAENRGALPLHHLIEKLKEYHAAPALQGFGISSPEQVSAAVRAGAAGAISGSAIVKIIEKNLASPKQMLAELRSFVSAMKAASRA
- binding result: binds
